Key:
T1BP2 = biological target: T1, T1BP2
T1 chain: SAYAATVRGPLSSAS

human topoisomerase I [1] = biological target: T2, human topoisomerase I (human, UniProt P11387 1-765, limits assumed); test: SPR (BIAcore 2000), T1BP2 on CM5 chip, top1 as analyte, Langmuir model
T2 construct: also called top1; top 1
T2 sequence (looked up): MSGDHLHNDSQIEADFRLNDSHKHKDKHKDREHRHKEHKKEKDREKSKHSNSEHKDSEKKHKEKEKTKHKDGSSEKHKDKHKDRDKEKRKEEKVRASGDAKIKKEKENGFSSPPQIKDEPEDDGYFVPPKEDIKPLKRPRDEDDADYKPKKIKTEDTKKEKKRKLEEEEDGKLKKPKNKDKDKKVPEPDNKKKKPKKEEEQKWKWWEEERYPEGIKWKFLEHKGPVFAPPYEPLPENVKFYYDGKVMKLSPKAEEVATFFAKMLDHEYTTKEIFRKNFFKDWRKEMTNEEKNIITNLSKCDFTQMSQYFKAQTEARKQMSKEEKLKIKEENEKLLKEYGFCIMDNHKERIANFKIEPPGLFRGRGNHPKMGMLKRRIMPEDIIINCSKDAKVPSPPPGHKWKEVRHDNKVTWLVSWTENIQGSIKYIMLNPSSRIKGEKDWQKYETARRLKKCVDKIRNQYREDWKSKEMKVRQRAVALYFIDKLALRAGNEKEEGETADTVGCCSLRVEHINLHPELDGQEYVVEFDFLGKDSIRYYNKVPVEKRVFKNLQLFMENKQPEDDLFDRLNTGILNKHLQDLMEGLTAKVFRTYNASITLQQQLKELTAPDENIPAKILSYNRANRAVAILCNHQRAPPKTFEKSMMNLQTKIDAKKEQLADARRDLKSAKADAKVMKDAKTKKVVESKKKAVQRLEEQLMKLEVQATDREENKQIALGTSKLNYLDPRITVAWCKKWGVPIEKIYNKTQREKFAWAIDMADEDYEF
Experimental: (§1) Binding analysis: The binding analysis of the peptides was performed on a BIAcore 2000 instrument. A four channel CM5 sensor chip was derivatized with three top1 binding peptides (T1BPs 1, 2 and 4) and a control surface left blank. Catalytically active top1 was used as the mobile or analyte phase and diluted in 150 mM NaCl, 30 mM HEPES, 0.05% P20 and injected at various concentrations (8.0, 4.0, 2.0, 1.0 and 0.4 nM) through the instrument's microfluidics sample handling system at a flow rate of 30 μl/minute. With each injection of a particular concentration of top1, association and dissociation data for three peptides were generated. Binding constants were determined using the BIAevaluation 2.1 software.
T1BP2 affinity for top1: T1BP2 had remarkable affinity for top1 when assayed by surface plasmon resonance (FIG. 2a).

human topoisomerase I [2] = biological target: T2, human topoisomerase I; test: SPR (BIAcore), T1BP2 on the chip, top1 as analyte, Langmuir model [cont'd) B]
Experimental: These top1 experiments were evaluated with BIAevaluation Software 3.1 using Langmuir Kinetics to model the interaction. The accuracy of the fit to the model is illustrated by dashed lines representing actual data and narrow lines representing the fitted curves.
as §1

human topoisomerase I [3] = biological target: T2, human topoisomerase I; test: SPR (BIAcore), 100 kDa top1 applied at 1, 2.5, 5, 10 and 20 nM to the CPP1 flow cell, global fit [left panel]
Experimental: Top 1 was applied to flow cells in 1, 2.5, 5, 10 and 20 nM concentrations. The overlaying curves represent the actual data for a given concentration of top 1 and the “fit” curves. Data were fit using the BIAeval 3000 global fitting software.

human topoisomerase I [4] = biological target: T2, human topoisomerase I; test: fluorescence polarization, human placental 91 kDa top1 titrated into 500 nM fluorescein-labeled T1BP1; the concentration is that of top1

B1: human topoisomerase I (protein)
chain: MSGDHLHNDSQIEADFRLNDSHKHKDKHKDREHRHKEHKKEKDREKSKHSNSEHKDSEKKHKEKEKTKHKDGSSEKHKDKHKDRDKEKRKEEKVRASGDAKIKKEKENGFSSPPQIKDEPEDDGYFVPPKEDIKPLKRPRDEDDADYKPKKIKTEDTKKEKKRKLEEEEDGKLKKPKNKDKDKKVPEPDNKKKKPKKEEEQKWKWWEEERYPEGIKWKFLEHKGPVFAPPYEPLPENVKFYYDGKVMKLSPKAEEVATFFAKMLDHEYTTKEIFRKNFFKDWRKEMTNEEKNIITNLSKCDFTQMSQYFKAQTEARKQMSKEEKLKIKEENEKLLKEYGFCIMDNHKERIANFKIEPPGLFRGRGNHPKMGMLKRRIMPEDIIINCSKDAKVPSPPPGHKWKEVRHDNKVTWLVSWTENIQGSIKYIMLNPSSRIKGEKDWQKYETARRLKKCVDKIRNQYREDWKSKEMKVRQRAVALYFIDKLALRAGNEKEEGETADTVGCCSLRVEHINLHPELDGQEYVVEFDFLGKDSIRYYNKVPVEKRVFKNLQLFMENKQPEDDLFDRLNTGILNKHLQDLMEGLTAKVFRTYNASITLQQQLKELTAPDENIPAKILSYNRANRAVAILCNHQRAPPKTFEKSMMNLQTKIDAKKEQLADARRDLKSAKADAKVMKDAKTKKVVESKKKAVQRLEEQLMKLEVQATDREENKQIALGTSKLNYLDPRITVAWCKKWGVPIEKIYNKTQREKFAWAIDMADEDYEF
T1BP2
  cleavage complex formation (top1-DNA-9AC cleavage assay): T1BP2 increased cleavage complex formation approximately 50%

B2: T1BP2 (peptide)
peptide: SAYAATVRGPLSSAS
notes: Coupled to a CM5 chip for SPR; also called T1PB2; CPP3
Human topoisomerase I [1]
  Kd: 665 nM
Human topoisomerase I [2]
  Ka: 1.5e+06 M⁻¹
  kd (s-1) (observed) at [Top1] 0.4 nM: 0.0028 s⁻¹
  kd (s-1) (observed) at [Top1] 1.0 nM: 0.0028 s⁻¹
  kd (s-1) (observed) at [Top1] 2.0 nM: 0.00281 s⁻¹
  kd (s-1) (observed) at [Top1] 4.0 nM: 0.00282 s⁻¹
  kd (s-1) (observed) at [Top1] 8.0 nM: 0.00283 s⁻¹
  koff: 0.0028 s⁻¹
  kon: 4210 M⁻¹ s⁻¹

## LAVRRYALGNGYDWS [CPP1]
Human topoisomerase I [3]
  binding result: binds

## SSQVVGVPQLMQSSP (also called CPP2) [T1BP1]
Human topoisomerase I [4]
  EC50 (read off the curve): ~100 nM
